{"source": "paper PMC8752778", "about": "“The RNA methyltransferase METTL8 installs m3C32 in mitochondrial tRNAsThr/Ser(UCN) to optimise tRNA structure and mitochondrial translation”", "key": {"His14-MBP-METTL8 [1]": {"molecular_target": "T1, His14-MBP-METTL8 (Homo sapiens, UniProt B3KW44 1-407)", "T1 sequence": "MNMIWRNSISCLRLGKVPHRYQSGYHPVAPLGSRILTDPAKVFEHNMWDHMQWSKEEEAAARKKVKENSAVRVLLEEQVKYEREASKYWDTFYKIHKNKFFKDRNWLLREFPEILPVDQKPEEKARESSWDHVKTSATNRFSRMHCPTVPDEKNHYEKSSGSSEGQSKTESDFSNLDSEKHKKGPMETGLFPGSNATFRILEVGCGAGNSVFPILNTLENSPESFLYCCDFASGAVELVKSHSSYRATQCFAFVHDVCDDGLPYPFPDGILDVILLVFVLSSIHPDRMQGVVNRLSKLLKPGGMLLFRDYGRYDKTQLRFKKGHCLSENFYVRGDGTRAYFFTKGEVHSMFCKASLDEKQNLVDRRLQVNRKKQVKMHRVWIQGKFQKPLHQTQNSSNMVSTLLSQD", "assay": "fluorescence anisotropy; high affinity; lower than i6A37 ASL; Kd only in figure; 30 mM phosphate pH 7.3, 200 mM KCl, 20 nM labelled oligonucleotide, 0-2 uM protein, 5 min at room temperature, measured at 22 C", "details": "protein: recombinant; tags: N-terminal His14-MBP; label: fluorescein (5' hexynyl/6FAM azide click); hairpin"}, "His14-MBP-METTL8 [2]": {"molecular_target": "T1, His14-MBP-METTL8", "assay": "fluorescence anisotropy; affinity similar to ASLs; Kd only in figure; 30 mM phosphate pH 7.3, 200 mM KCl, 20 nM labelled oligonucleotide, 0-2 uM protein, 5 min at room temperature, measured at 22 C", "details": "protein: recombinant; tags: N-terminal His14-MBP; label: fluorescein (5' click per Methods); single strand"}, "His14-MBP-METTL8 [3]": {"molecular_target": "T1, His14-MBP-METTL8", "assay": "fluorescence anisotropy; 30 mM phosphate pH 7.3, 200 mM KCl, 20 nM labelled oligonucleotide, 0-2 uM protein, 5 min at room temperature, measured at 22 C", "details": "protein: recombinant; tags: N-terminal His14-MBP; label: 5' fluorescein; hairpin"}, "His14-MBP-METTL8 [4]": {"molecular_target": "T1, His14-MBP-METTL8", "assay": "fluorescence anisotropy; up to 2 uM protein; 30 mM phosphate pH 7.3, 200 mM KCl, 20 nM labelled oligonucleotide, 0-2 uM protein, 5 min at room temperature, measured at 22 C", "details": "protein: recombinant; tags: N-terminal His14-MBP; label: 5' fluorescein"}, "His14-MBP-METTL8 [5]": {"molecular_target": "T1, His14-MBP-METTL8", "assay": "fluorescence anisotropy; 30 mM phosphate pH 7.3, 200 mM KCl, 20 nM labelled oligonucleotide, 0-2 uM protein, 5 min at room temperature, measured at 22 C", "details": "protein: recombinant; tags: N-terminal His14-MBP; label: fluorescein (5' click per Methods); hairpin"}, "His14-MBP-METTL8 [6]": {"molecular_target": "T1, His14-MBP-METTL8", "assay": "fluorescence anisotropy; high affinity; Kd only in figure; 30 mM phosphate pH 7.3, 200 mM KCl, 20 nM labelled oligonucleotide, 0-2 uM protein, 5 min at room temperature, measured at 22 C", "details": "protein: recombinant; tags: N-terminal His14-MBP; label: fluorescein (5' click per Methods); hairpin"}}, "data": [{"binder": "GUUGGCUUGAAACCAGCU (structured_RNA)", "note": "[mt-tRNASer(UCN) ASL unmodified]", "values": [{"measurement": "binding result", "setting": "His14-MBP-METTL8 [1]", "value": "binds"}]}, {"binder": "GACAUACUGACCCUUCAAAUA (ssRNA)", "note": "[Unstructured RNA 2]", "values": [{"measurement": "binding result", "setting": "His14-MBP-METTL8 [2]", "value": "binds"}]}, {"binder": "GUAAAAGUCGUAACAAAGGU (ssRNA)", "note": "[Unstructured RNA R420]", "values": [{"measurement": "binding result", "setting": "His14-MBP-METTL8 [2]", "value": "binds"}]}, {"binder": "GUUGGCUUGAAACCAGCU (structured_RNA, i6A at strand position 11 (A37))", "note": "[mt-tRNASer(UCN) i6A37 ASL]", "values": [{"measurement": "Kd", "setting": "His14-MBP-METTL8 [3]", "value": 200, "unit": "nM"}]}, {"binder": "GATGTGCAGCTGCACATC (ssDNA)", "note": "[DNA oligonucleotide]", "values": [{"measurement": "binding result", "setting": "His14-MBP-METTL8 [4]", "value": "no binding"}]}, {"binder": "GUUGGCUUGAAACCAGCU (structured_RNA, m3C at strand position 6 (C32); i6A at strand position 11 (A37))", "note": "[mt-tRNASer(UCN) m3C32 i6A37 ASL]", "values": [{"measurement": "binding signal", "setting": "His14-MBP-METTL8 [5]", "value": "~2.5 fold weaker than i6A37 ASL (N6)"}]}, {"binder": "UCGGGCCCAUACCCCGA (structured_RNA)", "note": "[mt-tRNAMet ASL]", "values": [{"measurement": "binding result", "setting": "His14-MBP-METTL8 [6]", "value": "binds"}]}]}
